# B1: human epidermal growth factor: growth factor gel loaded in PVA core layer fiber (protein, UniProt P01133 23-1207, looked up)
# Pro-epidermal growth factor: PQHWSCPEGTLAGNGNSTCVGPAPFLIFSHGNSIFRIDTEGTNYEQLVVDAGVSVIMDFHYNEKRIYWVDLERQLLQRVFLNGSRQERVCNIEKNVSGMAINWINEEVIWSNQQEGIITVTDMKGNNSHILLSALKYPANVAVDPVERFIFWSSEVAGSLYRADLDGVGVKALLETSEKITAVSLDVLDKRLFWIQYNREGSNSLICSCDYDGGSVHISKHPTQHNLFAMSLFGDRIFYSTWKMKTIWIANKHTGKDMVRINLHSSFVPLGELKVVHPLAQPKAEDDTWEPEQKLCKLRKGNCSSTVCGQDLQSHLCMCAEGYALSRDRKYCEDVNECAFWNHGCTLGCKNTPGSYYCTCPVGFVLLPDGKRCHQLVSCPRNVSECSHDCVLTSEGPLCFCPEGSVLERDGKTCSGCSSPDNGGCSQLCVPLSPVSWECDCFPGYDLQLDEKSCAASGPQPFLLFANSQDIRHMHFDGTDYGTLLSQQMGMVYALDHDPVENKIYFAHTALKWIERANMDGSQRERLIEEGVDVPEGLAVDWIGRRFYWTDRGKSLIGRSDLNGKRSKIITKENISQPRGIAVHPMAKRLFWTDTGINPRIESSSLQGLGRLVIASSDLIWPSGITIDFLTDKLYWCDAKQSVIEMANLDGSKRRRLTQNDVGHPFAVAVFEDYVWFSDWAMPSVMRVNKRTGKDRVRLQGSMLKPSSLVVVHPLAKPGADPCLYQNGGCEHICKKRLGTAWCSCREGFMKASDGKTCLALDGHQLLAGGEVDLKNQVTPLDILSKTRVSEDNITESQHMLVAEIMVSDQDDCAPVGCSMYARCISEGEDATCQCLKGFAGDGKLCSDIDECEMGVPVCPPASSKCINTEGGYVCRCSEGYQGDGIHCLDIDECQLGEHSCGENASCTNTEGGYTCMCAGRLSEPGLICPDSTPPPHLREDDHHYSVRNSDSECPLSHDGYCLHDGVCMYIEALDKYACNCVVGYIGERCQYRDLKWWELRHAGHGQQQKVIVVAVCVVVLVMLLLLSLWGAHYYRTQKLLSKNPKNPYEESSRDVRSRRPADTEDGMSSCPQPWFVVIKEHQDLKNGGQPVAGEDGQAADGSMQPTSWRQEPQLCGMGTEQGCWIPVSSDKGSCPQVMERSFHMPSYGTQTLEGGVEKPHSLLSANPLWQQRALDPPHQMELTQ
# modifications: Pro-epidermal growth factor
# notes: growth factor gel loaded in PVA core layer fiber
# Test: sequential release of drugs from core-shell nano-disordered electrospun fiber structure
# Assay type: physicochemical
# Conditions: composite electrospun layer of Example 1; roxithromycin in shell layer fiber, human epidermal growth factor in core layer fiber
# Text: Moreover, the transmission electron microscopic image of the core-shell nano-disordered electrospun fiber structure in the composite electrospun layer prepared in Example 1 is shown in FIG. 3. […] The coaxial electrospinning realizes the sequential and timed release of the two drugs in the same electrospun layer. Further, the electrospun layer can be prepared by triaxial electrospinning or multiaxial electrospinning process, which has a core-shell structure of three core layers or multi-core layers, thereby achieving the sequential and timed release of three or more drugs in the same electrospun layer.
molecule,measurement,value
B1,order of drug release from core-shell fiber,subsequently released

# Reference: patent US20250134683A1, “MICRO-NANO MEDICAL STENT FOR DIRECTIONAL, QUANTITATIVE AND TIMED RELEASE OF DRUG AND PREPARATION METHOD THEREOF” (GUANGDONG UNIVERSITY OF TECHNOLOGY, priority 2023, published 2025)
